How the values were obtained:
[1] = molecular target: T1, CD22 variant lacking domain 1 (Δ1), expressed on CHO cells (human, UniProt P20273 139-847); test: flow cytometry on CHO cells expressing the CD22 deletion variant; goat anti-mouse IgG Alexa 488
T1 construct: Membrane protein on stably transformed CHO cells; Numbering of full length precursor CD22beta (Wilson et al. 1991); also called CD22 lacking domain 1
T1 chain: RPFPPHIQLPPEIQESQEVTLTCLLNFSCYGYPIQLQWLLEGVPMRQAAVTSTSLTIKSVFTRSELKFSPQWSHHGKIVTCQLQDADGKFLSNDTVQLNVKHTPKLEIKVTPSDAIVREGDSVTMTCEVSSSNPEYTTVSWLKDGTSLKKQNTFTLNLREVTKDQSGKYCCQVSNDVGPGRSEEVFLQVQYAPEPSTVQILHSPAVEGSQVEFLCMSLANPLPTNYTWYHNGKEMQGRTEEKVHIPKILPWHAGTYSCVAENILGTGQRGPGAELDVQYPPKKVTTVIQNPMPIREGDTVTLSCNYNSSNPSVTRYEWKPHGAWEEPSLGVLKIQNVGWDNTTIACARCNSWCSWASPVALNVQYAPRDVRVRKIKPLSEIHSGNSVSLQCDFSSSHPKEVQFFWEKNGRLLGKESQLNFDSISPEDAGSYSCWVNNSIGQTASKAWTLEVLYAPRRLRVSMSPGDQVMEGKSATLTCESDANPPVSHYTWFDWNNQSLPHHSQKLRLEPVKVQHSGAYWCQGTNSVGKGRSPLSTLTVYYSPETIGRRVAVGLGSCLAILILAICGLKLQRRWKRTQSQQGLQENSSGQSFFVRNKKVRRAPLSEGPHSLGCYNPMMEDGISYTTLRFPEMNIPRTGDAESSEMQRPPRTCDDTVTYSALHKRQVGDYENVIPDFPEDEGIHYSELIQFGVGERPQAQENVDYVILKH
Experimental: CD22 sequences lacking various of the seven immunoglobulin-like domains of the major CD22 isoform (CD22beta) were cloned and transformed into cells for stable expression. For example, CD22 variants lacking domain 1 (Δ1), domain 2 (Δ2), or domains 3 and 4 (Δ3,4) were cloned, transformed into CHO cells, and expressed on the cells. Control cells expressed CD22beta. Deletions were performed using Stratagene QuikChange XL™ reagent kit. Deletion of domain 1 was performed by deletion of amino acids 22-138; deletion of domain 2 was performed by deletion of amino acids 139-242; and deleted domains 3 and 4 were available as the minor isoform CD22alpha (deletion of amino acids 241-417). All amino acid numbers refer to the numbering of full length precursor CD22beta by Wilson, G. L. et al. (see FIG. 1 in Wilson, G. L. et al., J. Exp. Med. 173:137-146 (1991)). FIG. 14 is a diagram of the deleted domains. Binding was determined by flow cytometry using an isotype control. […] Binding of 5E8.1.8 was detected using biotinylated goat anti-mouse IgG plus streptavidin PE.

[2] = molecular target: T2, full length human CD22 (CD22beta) expressed on the surface of CHO cells (human, UniProt P20273 22-847); test: cell-based competitive binding of 125I-labelled against unlabelled antibody on CHO cells, 4 h at 4 C, Scatchard analysis
T2 construct: CHO cells stably expressing full length human CD22; also called CD22beta (control cells)
Experimental: (§1) Briefly, CHO cells stably expressing full length human CD22 (SEQ ID NO:27) or cynomolgus monkey (cyno) CD22 (SEQ ID NO:31). […] A cell-based, competitive binding assay was performed using serially diluted, unlabeled anti-CD22 antibody. Antibodies were allowed to bind to the cells for 4 hours at 4° C. Binding affinity, KD, of the antibodies was determined in accordance with standard Scatchard analysis performed utilizing a non-linear curve fitting program (see, for example, Munson et al., Anal Biochem, 107: 220-239, 1980).

[3] = molecular target: T3, cynomolgus monkey (cyno) CD22 expressed on the surface of CHO cells (cynomolgus monkey); test: as above
T3 construct: residues 1-19 (signal) should be removed
T3 chain: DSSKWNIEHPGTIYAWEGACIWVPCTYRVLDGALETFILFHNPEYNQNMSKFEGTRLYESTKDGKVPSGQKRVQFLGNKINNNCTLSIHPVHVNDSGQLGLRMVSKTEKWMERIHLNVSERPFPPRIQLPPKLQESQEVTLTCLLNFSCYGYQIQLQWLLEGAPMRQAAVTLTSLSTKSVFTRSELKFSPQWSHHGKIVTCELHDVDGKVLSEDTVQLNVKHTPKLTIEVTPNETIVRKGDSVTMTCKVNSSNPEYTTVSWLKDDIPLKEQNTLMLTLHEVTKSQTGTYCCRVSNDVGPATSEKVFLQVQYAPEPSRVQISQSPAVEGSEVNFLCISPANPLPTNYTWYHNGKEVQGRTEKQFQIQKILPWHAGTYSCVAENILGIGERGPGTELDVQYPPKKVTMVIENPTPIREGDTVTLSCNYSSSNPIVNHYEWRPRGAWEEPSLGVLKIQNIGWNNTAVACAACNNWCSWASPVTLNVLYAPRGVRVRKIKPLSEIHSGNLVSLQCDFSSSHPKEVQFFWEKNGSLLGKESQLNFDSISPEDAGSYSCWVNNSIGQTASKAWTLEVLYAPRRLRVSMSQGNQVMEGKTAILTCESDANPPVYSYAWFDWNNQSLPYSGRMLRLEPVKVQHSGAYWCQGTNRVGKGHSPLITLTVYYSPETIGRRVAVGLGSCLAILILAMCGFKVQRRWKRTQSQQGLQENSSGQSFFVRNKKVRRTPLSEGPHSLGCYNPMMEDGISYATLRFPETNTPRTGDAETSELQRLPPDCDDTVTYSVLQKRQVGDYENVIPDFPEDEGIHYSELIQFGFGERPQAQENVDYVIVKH
Experimental: as §1

B1: murine anti-human CD22 10F4.4.1 monoclonal antibody (antibody, V domains shown)
VH: QVQLQQSGPELVKPGASVKISCKASGYEFSRSWMNWVKQRPGQGREWIGRIYPGDGDTNYSGKFKGKATLTADKSSSTAYMQLSSLTSVDSAVYFCARDGSSWDWYFDVWGAGTTVTVSS
VL: DILMTQTPLSLPVSLGDQASISCRSSQSIVHSNGNTFLEWYLQKPGQSPKLLIYKVSNRFSGVPDRFSGSGSGTDFTLKISRVEAEDLGVYYCFQGSQFPYTFGGGTKVEIK
notes: Murine hybridoma antibody (ATCC PTA-7621); also called mu 10F4; Mu 10F4.4.1
For B1, the binding result [1] was “no binding”, the Kd [2] was 2.4 nM and the Kd [3] was 2.3 nM.
